# Test results published in patent US20110294738A1, “PTHR1 RECEPTOR COMPOUNDS” (priority 2008, published 2011).
# * marks the point of attachment. Palmitoyl = CCCCCCCCCCCCCCCC(=O)*
# B1: Compound 10 (peptide)
# peptide: Palmitoyl-LAYFRRLHSTRNYIHMH-NH2
# SMILES: CCCCCCCCCCCCCCCC(=O)N[C@@H](CC(C)C)C(=O)N[C@@H](C)C(=O)N[C@@H](Cc1ccc(O)cc1)C(=O)N[C@@H](Cc1ccccc1)C(=O)N[C@@H](CCCNC(=N)N)C(=O)N[C@@H](CCCNC(=N)N)C(=O)N[C@@H](CC(C)C)C(=O)N[C@@H](Cc1c[nH]cn1)C(=O)N[C@@H](CO)C(=O)N[C@H](C(=O)N[C@@H](CCCNC(=N)N)C(=O)N[C@@H](CC(N)=O)C(=O)N[C@@H](Cc1ccc(O)cc1)C(=O)N[C@H](C(=O)N[C@@H](Cc1c[nH]cn1)C(=O)N[C@@H](CCSC)C(=O)N[C@@H](Cc1c[nH]cn1)C(N)=O)[C@@H](C)CC)[C@@H](C)O
# B2: Compound 2 (peptide)
# peptide: Palmitoyl-RRLHSTRNYIH-NH2
# SMILES: CCCCCCCCCCCCCCCC(=O)N[C@@H](CCCNC(=N)N)C(=O)N[C@@H](CCCNC(=N)N)C(=O)N[C@@H](CC(C)C)C(=O)N[C@@H](Cc1c[nH]cn1)C(=O)N[C@@H](CO)C(=O)N[C@H](C(=O)N[C@@H](CCCNC(=N)N)C(=O)N[C@@H](CC(N)=O)C(=O)N[C@@H](Cc1ccc(O)cc1)C(=O)N[C@H](C(=O)N[C@@H](Cc1c[nH]cn1)C(N)=O)[C@@H](C)CC)[C@@H](C)O
# B3: Compound 13 (peptide)
# peptide: Palmitoyl-GGYFRRLHSTRNYIH-NH2
# SMILES: CCCCCCCCCCCCCCCC(=O)NCC(=O)NCC(=O)N[C@@H](Cc1ccc(O)cc1)C(=O)N[C@@H](Cc1ccccc1)C(=O)N[C@@H](CCCNC(=N)N)C(=O)N[C@@H](CCCNC(=N)N)C(=O)N[C@@H](CC(C)C)C(=O)N[C@@H](Cc1c[nH]cn1)C(=O)N[C@@H](CO)C(=O)N[C@H](C(=O)N[C@@H](CCCNC(=N)N)C(=O)N[C@@H](CC(N)=O)C(=O)N[C@@H](Cc1ccc(O)cc1)C(=O)N[C@H](C(=O)N[C@@H](Cc1c[nH]cn1)C(N)=O)[C@@H](C)CC)[C@@H](C)O
# B4: Compound 39 (peptide)
# peptide: Palmitoyl-LYLHSLIFMAFFSEKKYL-NH2
# SMILES: CCCCCCCCCCCCCCCC(=O)N[C@@H](CC(C)C)C(=O)N[C@@H](Cc1ccc(O)cc1)C(=O)N[C@@H](CC(C)C)C(=O)N[C@@H](Cc1c[nH]cn1)C(=O)N[C@@H](CO)C(=O)N[C@@H](CC(C)C)C(=O)N[C@H](C(=O)N[C@@H](Cc1ccccc1)C(=O)N[C@@H](CCSC)C(=O)N[C@@H](C)C(=O)N[C@@H](Cc1ccccc1)C(=O)N[C@@H](Cc1ccccc1)C(=O)N[C@@H](CO)C(=O)N[C@@H](CCC(=O)O)C(=O)N[C@@H](CCCCN)C(=O)N[C@@H](CCCCN)C(=O)N[C@@H](Cc1ccc(O)cc1)C(=O)N[C@@H](CC(C)C)C(N)=O)[C@@H](C)CC
# B5: Compound 12 (peptide)
# peptide: Palmitoyl-SSYFRRLHSTRNYIH-NH2
# SMILES: CCCCCCCCCCCCCCCC(=O)N[C@@H](CO)C(=O)N[C@@H](CO)C(=O)N[C@@H](Cc1ccc(O)cc1)C(=O)N[C@@H](Cc1ccccc1)C(=O)N[C@@H](CCCNC(=N)N)C(=O)N[C@@H](CCCNC(=N)N)C(=O)N[C@@H](CC(C)C)C(=O)N[C@@H](Cc1c[nH]cn1)C(=O)N[C@@H](CO)C(=O)N[C@H](C(=O)N[C@@H](CCCNC(=N)N)C(=O)N[C@@H](CC(N)=O)C(=O)N[C@@H](Cc1ccc(O)cc1)C(=O)N[C@H](C(=O)N[C@@H](Cc1c[nH]cn1)C(N)=O)[C@@H](C)CC)[C@@H](C)O
# B6: Compound 14 (peptide)
# peptide: Palmitoyl-LAYFRRLHSTRN-NH2
# SMILES: CCCCCCCCCCCCCCCC(=O)N[C@@H](CC(C)C)C(=O)N[C@@H](C)C(=O)N[C@@H](Cc1ccc(O)cc1)C(=O)N[C@@H](Cc1ccccc1)C(=O)N[C@@H](CCCNC(=N)N)C(=O)N[C@@H](CCCNC(=N)N)C(=O)N[C@@H](CC(C)C)C(=O)N[C@@H](Cc1c[nH]cn1)C(=O)N[C@@H](CO)C(=O)N[C@H](C(=O)N[C@@H](CCCNC(=N)N)C(=O)N[C@@H](CC(N)=O)C(N)=O)[C@@H](C)O
# B7: Compound 54 (peptide)
# peptide: Palmitoyl-NIVRVLATKLRETNAGR-NH2
# SMILES: CCCCCCCCCCCCCCCC(=O)N[C@@H](CC(N)=O)C(=O)N[C@H](C(=O)N[C@H](C(=O)N[C@@H](CCCNC(=N)N)C(=O)N[C@H](C(=O)N[C@@H](CC(C)C)C(=O)N[C@@H](C)C(=O)N[C@H](C(=O)N[C@@H](CCCCN)C(=O)N[C@@H](CC(C)C)C(=O)N[C@@H](CCCNC(=N)N)C(=O)N[C@@H](CCC(=O)O)C(=O)N[C@H](C(=O)N[C@@H](CC(N)=O)C(=O)N[C@@H](C)C(=O)NCC(=O)N[C@@H](CCCNC(=N)N)C(N)=O)[C@@H](C)O)[C@@H](C)O)C(C)C)C(C)C)[C@@H](C)CC
# B8: Compound 11 (peptide)
# peptide: Palmitoyl-GSYFRRLHSTRNYIH-NH2
# SMILES: CCCCCCCCCCCCCCCC(=O)NCC(=O)N[C@@H](CO)C(=O)N[C@@H](Cc1ccc(O)cc1)C(=O)N[C@@H](Cc1ccccc1)C(=O)N[C@@H](CCCNC(=N)N)C(=O)N[C@@H](CCCNC(=N)N)C(=O)N[C@@H](CC(C)C)C(=O)N[C@@H](Cc1c[nH]cn1)C(=O)N[C@@H](CO)C(=O)N[C@H](C(=O)N[C@@H](CCCNC(=N)N)C(=O)N[C@@H](CC(N)=O)C(=O)N[C@@H](Cc1ccc(O)cc1)C(=O)N[C@H](C(=O)N[C@@H](Cc1c[nH]cn1)C(N)=O)[C@@H](C)CC)[C@@H](C)O
# B9: Compound 55 (peptide)
# peptide: Palmitoyl-NIVRVLATKLRE-NH2
# SMILES: CCCCCCCCCCCCCCCC(=O)N[C@@H](CC(N)=O)C(=O)N[C@H](C(=O)N[C@H](C(=O)N[C@@H](CCCNC(=N)N)C(=O)N[C@H](C(=O)N[C@@H](CC(C)C)C(=O)N[C@@H](C)C(=O)N[C@H](C(=O)N[C@@H](CCCCN)C(=O)N[C@@H](CC(C)C)C(=O)N[C@@H](CCCNC(=N)N)C(=O)N[C@@H](CCC(=O)O)C(N)=O)[C@@H](C)O)C(C)C)C(C)C)[C@@H](C)CC
# B10: Compound 56 (peptide)
# peptide: Palmitoyl-DTRQQYRKLLKSTL-NH2
# SMILES: CCCCCCCCCCCCCCCC(=O)N[C@@H](CC(=O)O)C(=O)N[C@H](C(=O)N[C@@H](CCCNC(=N)N)C(=O)N[C@@H](CCC(N)=O)C(=O)N[C@@H](CCC(N)=O)C(=O)N[C@@H](Cc1ccc(O)cc1)C(=O)N[C@@H](CCCNC(=N)N)C(=O)N[C@@H](CCCCN)C(=O)N[C@@H](CC(C)C)C(=O)N[C@@H](CC(C)C)C(=O)N[C@@H](CCCCN)C(=O)N[C@@H](CO)C(=O)N[C@H](C(=O)N[C@@H](CC(C)C)C(N)=O)[C@@H](C)O)[C@@H](C)O
# Molecular target: PTHR1 receptor
# Sequence (P25961 whole entry): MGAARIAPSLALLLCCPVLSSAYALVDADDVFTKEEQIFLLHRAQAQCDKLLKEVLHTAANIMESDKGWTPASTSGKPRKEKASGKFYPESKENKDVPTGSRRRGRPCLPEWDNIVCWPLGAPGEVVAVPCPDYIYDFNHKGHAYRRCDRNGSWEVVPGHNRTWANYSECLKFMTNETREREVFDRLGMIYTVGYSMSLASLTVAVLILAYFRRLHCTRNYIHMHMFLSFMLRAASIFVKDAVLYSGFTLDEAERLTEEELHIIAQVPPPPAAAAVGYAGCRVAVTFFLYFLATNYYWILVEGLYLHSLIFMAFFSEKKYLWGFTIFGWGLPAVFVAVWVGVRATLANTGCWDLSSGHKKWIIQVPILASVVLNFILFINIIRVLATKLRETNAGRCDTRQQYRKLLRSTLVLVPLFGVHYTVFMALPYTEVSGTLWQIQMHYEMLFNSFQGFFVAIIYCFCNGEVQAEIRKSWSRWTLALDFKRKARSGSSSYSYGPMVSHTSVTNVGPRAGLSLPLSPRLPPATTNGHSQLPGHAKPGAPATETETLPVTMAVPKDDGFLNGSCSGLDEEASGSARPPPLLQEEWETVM
Fold Shift of EC50 [fold],Inhibition of Maximal Response [%],Binder
1.1,24.1,B1
1.9,-24.9,B2
0.7,29.2,B3
1.3,29.3,B4
0.9,26.6,B5
1.5,28.3,Palmitoyl-LYLHSLIFMAFFSEKK-NH2 (not fully specified) [Compound 40]
0.7,15.2,B6
0.7,17.5,B7
1.1,19.8,B8
0.6,26.1,B9
1.9,-30.4,B10
